Each block holds one substance with its values, some of them ahead of it.
How the values were obtained:
[1] = molecular target: tax 11-19 peptide-HLA-A2 complex (biotinylated); experiment: SPR (BIAcore 3000), sTCR-specific response over repeated injections after compound mixtures
MHC/peptide complex = details: cited from earlier work
B7 = details: read-out: Kd of CD28-B7 interaction; cited from earlier work
[2] = molecular target: influenza matrix peptide-HLA-A2 complex (biotinylated) (influenza virus); experiment: SPR (BIAcore 3000), sTCR-specific response over repeated injections after compound mixtures
[3] = molecular target: HLA-A2 (prepared as described in Example A1 and tagged with a biotin molecule); experiment: SPR (BIAcore 3000), sCD8αα-specific response as a percentage of the initial response
[4] = system: class I MHC-restricted T cells; details: cited from earlier work

loss of signal over the run [1]: 33%
Substance: A6 soluble T cell receptor (TCR)

Substance: CD8: T cell coreceptor binding class I MHC/peptide complex
off rate from an MHC/peptide complex (MHC/peptide complex): approximately 10 s^−1
Kd (MHC/peptide complex; read-out: Kd of interaction with MHC/peptide complex): ~500 µM

Substance: CD28: receptor with low affinity interaction with B7
Kd (B7): ~4 µM

Substance: JM22 soluble T cell receptor (TCR)
loss of signal after 10 mixtures [2]: 10.2%
loss of signal over the run [2]: 9.3%

loss of signal over the run [3]: 3.6%
Substance: recombinant soluble form of CD8 (sCD8αα) (from UniProt P01732 22-141) (receptor)

Substance: soluble, recombinant CD8: soluble, recombinant CD8 derived from the human coreceptor
inhibition of class I MHC-restricted T cells responses [4]: potent inhibitor
